Measured values reported in the supplement of paper PMC10065799, “High-throughput profiling of sequence recognition by tyrosine kinases and SH2 domains using bacterial peptide display” (eLife, 2023).

Tests used:
[1] = test system: AncSZ; test: phosphorylation enrichment, bacterial display (enrichment ratio); higher = better substrate or ligand; peptides without Tyr show the background
[2] = target: EPHB1 (UniProt P54762); test: as above
[3] = target: EPHB2 (UniProt P29323); test: as above
[4] = target: FGFR1 (UniProt P11362); test: as above
FGFR1, sequence (P11362 whole entry, looked up): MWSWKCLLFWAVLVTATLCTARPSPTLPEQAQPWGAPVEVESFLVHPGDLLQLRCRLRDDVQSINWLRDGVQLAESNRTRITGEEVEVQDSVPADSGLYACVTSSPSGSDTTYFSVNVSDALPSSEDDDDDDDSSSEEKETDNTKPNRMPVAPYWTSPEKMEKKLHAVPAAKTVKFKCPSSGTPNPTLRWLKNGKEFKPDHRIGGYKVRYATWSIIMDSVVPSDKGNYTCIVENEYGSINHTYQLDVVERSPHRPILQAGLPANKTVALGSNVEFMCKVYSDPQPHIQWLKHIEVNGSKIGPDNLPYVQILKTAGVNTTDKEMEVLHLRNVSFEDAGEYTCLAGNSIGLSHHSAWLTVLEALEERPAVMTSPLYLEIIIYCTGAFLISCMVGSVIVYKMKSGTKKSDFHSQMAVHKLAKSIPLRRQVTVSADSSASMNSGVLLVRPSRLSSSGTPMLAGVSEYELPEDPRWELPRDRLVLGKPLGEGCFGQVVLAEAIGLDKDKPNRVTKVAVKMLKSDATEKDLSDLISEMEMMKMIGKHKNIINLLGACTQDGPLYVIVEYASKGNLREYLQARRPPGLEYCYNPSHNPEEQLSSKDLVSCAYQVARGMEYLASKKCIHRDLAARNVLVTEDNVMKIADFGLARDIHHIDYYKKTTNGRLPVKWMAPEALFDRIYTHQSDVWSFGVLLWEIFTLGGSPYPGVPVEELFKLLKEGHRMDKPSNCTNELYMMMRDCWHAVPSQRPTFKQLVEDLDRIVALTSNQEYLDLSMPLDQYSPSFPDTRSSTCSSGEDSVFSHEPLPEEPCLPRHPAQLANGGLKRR

[5] = target: FGFR3 (UniProt P22607); test: as above
[6] = test system: Fer (mouse); test: as above
[7] = target: Fes (UniProt P07332); test: as above
Fes, sequence (P07332 whole entry, looked up): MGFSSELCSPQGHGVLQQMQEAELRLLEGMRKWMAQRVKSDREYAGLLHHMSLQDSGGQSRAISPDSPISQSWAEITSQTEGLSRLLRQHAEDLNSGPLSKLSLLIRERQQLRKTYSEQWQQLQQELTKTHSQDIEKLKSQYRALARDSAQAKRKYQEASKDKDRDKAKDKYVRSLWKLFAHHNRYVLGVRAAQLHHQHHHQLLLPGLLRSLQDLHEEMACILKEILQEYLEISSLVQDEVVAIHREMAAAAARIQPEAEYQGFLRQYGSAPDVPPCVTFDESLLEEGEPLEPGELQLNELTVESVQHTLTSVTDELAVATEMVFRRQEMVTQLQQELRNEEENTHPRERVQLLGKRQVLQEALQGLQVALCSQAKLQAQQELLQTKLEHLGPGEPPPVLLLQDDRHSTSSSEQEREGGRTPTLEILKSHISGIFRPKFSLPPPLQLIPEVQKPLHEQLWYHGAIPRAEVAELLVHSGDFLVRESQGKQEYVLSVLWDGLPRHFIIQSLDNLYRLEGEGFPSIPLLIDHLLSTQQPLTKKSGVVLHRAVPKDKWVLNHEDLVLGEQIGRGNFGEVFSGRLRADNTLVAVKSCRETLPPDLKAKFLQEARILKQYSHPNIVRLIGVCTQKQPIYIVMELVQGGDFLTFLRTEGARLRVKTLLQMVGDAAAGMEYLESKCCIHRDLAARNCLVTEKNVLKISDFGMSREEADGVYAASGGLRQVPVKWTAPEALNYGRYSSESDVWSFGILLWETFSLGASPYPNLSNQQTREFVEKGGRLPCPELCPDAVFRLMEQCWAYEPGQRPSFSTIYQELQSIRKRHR

[8] = target: Fyn (UniProt P06241); test: as above
Fyn, sequence (P06241 whole entry, looked up): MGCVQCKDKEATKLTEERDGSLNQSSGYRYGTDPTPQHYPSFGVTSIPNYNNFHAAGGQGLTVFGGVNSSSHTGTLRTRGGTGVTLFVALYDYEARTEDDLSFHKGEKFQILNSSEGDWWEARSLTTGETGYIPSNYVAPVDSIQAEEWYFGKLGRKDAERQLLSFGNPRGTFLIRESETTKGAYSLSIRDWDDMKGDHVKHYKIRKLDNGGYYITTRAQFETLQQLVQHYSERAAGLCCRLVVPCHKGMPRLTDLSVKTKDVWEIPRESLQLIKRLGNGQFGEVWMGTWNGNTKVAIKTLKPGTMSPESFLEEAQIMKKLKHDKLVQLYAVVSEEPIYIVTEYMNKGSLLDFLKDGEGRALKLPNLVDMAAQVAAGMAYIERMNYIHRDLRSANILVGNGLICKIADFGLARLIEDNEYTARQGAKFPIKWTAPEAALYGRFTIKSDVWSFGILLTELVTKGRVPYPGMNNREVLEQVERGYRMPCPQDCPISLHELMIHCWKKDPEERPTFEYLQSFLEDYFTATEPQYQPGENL

[9] = target: Hck (UniProt P08631); test: as above
Hck, sequence (P08631 whole entry, looked up): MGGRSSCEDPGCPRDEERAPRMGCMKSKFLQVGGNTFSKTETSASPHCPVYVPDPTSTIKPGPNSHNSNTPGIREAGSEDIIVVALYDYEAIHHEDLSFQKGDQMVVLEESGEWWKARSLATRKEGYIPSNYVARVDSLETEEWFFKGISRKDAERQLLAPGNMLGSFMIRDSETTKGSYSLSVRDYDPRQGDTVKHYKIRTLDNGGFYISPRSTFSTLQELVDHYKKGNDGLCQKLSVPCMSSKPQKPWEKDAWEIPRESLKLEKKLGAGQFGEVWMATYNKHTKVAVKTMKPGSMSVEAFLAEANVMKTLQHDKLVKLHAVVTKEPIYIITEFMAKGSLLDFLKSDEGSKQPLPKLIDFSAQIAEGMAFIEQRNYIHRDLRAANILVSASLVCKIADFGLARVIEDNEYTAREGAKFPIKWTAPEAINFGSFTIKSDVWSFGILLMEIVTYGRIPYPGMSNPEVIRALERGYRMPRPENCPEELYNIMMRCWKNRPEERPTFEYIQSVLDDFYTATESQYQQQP

[10] = target: Jak2 (UniProt O60674); test: as above
[11] = target: MERTK (UniProt Q12866); test: as above
[12] = test system: c-Abl (mouse); test: as above
[13] = test system: c-Src; test: as above
[14] = target: Grb2 SH2 (UniProt P62993); test: SH2 binding enrichment of the phosphorylated peptide, bacterial display (enrichment ratio); higher = better substrate or ligand; peptides without Tyr show the background
[15] = target: SHP2-C SH2; test: as above
[16] = target: c-Src SH2; test: as above
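Throughout, for SH2 binding enrichment of the phosphorylated peptide, bacterial display: peptide library displayed on the E. coli surface as eCPX fusions, selected cells deep-sequenced, score is each peptide's frequency after selection divided by its frequency in the input.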
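Throughout, for phosphorylation enrichment, bacterial display: 11-residue human phosphosite peptides and single-mutation variants displayed on the E. coli surface, counted by deep sequencing, each peptide's frequency after selection divided by its frequency in the unselected input library; frequency after pTyr selection over input frequency; kinase dosed for 20-30% of maximal phosphorylation in three min.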

EPHB2, sequence (P29323 whole entry, looked up): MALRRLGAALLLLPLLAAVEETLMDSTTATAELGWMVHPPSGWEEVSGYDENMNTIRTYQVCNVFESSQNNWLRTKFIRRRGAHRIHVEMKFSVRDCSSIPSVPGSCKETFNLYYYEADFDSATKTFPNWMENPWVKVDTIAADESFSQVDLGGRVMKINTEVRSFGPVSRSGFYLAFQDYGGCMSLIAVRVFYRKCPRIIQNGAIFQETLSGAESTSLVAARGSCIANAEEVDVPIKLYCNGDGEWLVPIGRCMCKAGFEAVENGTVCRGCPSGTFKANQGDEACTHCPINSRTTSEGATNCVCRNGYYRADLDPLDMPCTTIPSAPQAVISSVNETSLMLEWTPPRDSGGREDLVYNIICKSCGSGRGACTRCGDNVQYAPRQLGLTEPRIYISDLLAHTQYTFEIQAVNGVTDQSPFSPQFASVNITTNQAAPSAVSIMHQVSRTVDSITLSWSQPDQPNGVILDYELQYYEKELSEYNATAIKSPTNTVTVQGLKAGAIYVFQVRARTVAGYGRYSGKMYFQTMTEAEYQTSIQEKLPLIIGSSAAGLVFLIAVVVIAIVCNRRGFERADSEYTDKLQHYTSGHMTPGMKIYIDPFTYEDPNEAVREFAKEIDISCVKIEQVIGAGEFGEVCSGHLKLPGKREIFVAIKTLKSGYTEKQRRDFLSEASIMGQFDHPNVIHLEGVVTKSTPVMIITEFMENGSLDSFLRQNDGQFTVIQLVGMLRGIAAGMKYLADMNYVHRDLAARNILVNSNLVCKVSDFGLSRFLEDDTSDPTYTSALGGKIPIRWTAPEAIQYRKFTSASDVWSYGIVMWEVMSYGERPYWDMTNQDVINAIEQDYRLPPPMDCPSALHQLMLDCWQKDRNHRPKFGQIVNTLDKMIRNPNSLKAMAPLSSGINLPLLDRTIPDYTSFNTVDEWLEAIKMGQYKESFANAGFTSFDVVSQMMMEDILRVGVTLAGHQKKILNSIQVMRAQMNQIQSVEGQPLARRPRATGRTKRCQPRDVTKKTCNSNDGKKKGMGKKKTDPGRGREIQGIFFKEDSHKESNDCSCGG
EPHB1, sequence (P54762 whole entry, looked up): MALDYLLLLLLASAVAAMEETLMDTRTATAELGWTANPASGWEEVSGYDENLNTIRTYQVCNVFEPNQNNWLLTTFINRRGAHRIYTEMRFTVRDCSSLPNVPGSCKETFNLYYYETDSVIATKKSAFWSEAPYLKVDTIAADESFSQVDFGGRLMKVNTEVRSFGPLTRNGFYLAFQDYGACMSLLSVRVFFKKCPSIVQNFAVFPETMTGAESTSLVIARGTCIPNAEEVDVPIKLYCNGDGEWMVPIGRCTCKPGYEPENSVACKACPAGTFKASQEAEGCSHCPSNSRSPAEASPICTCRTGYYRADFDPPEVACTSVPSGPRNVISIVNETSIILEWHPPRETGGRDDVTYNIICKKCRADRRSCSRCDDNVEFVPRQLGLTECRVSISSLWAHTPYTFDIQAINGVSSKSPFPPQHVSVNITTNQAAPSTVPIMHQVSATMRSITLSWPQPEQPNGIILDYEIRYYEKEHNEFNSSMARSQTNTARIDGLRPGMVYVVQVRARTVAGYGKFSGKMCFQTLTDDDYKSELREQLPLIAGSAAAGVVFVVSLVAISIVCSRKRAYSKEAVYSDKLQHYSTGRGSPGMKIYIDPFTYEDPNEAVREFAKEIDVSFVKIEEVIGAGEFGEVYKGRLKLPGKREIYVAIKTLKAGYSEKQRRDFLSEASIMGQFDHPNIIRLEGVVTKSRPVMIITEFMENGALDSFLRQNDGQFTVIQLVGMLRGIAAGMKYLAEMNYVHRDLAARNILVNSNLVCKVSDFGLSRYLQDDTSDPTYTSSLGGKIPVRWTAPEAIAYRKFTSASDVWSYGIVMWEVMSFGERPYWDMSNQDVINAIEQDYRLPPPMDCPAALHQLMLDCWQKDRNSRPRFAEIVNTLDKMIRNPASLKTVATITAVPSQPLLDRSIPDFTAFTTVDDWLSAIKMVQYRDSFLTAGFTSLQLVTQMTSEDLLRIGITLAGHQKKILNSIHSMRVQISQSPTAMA

Row | SH2 binding enrichment [14] | SH2 binding enrichment [15] | SH2 binding enrichment [16] | Sequence | phosphorylation enrichment [1] | phosphorylation enrichment [2] | phosphorylation enrichment [3] | phosphorylation enrichment [4] | phosphorylation enrichment [5] | phosphorylation enrichment [6] | phosphorylation enrichment [7] | phosphorylation enrichment [8] | phosphorylation enrichment [9] | phosphorylation enrichment [10] | phosphorylation enrichment [11] | phosphorylation enrichment [12] | phosphorylation enrichment [13]
1 | 0.669 | 0.488 | 0.352 | GGMTEYNLVVV [KRAS_Y4_K5N] | 1.21 | 0.642 | 0.552 | 1.08 | 1.05 | 1.17 | 1.1 | 0.486 | 0.609 | 0.981 | 0.398 | 0.758 | 0.478
2 | 1.35 | 1.21 | 0.721 | SSPQLYLVPFL [TAF4_Y652_P651L] | 1.3 | 4.26 | 3.08 | 2.18 | 2.11 | 1.23 | 0.974 | 0.7 | 0.907 | 7 | 7.97 | 13.2 | 0.721
3 | 1 | 0.902 | 0.727 | CDKEFYSVHNK [MET_Y1235_Y1230C_YF] | 0.732 | 0.461 | 0.586 | 0.441 | 0.606 | 0.405 | 0.827 | 0.504 | 0.46 | 0.68 | 0.423 | 0.55 | 0.491
4 | 1.3 | 1.12 | 1.57 | SKHRLYSDLQT [PTCHD1_Y84] | 0.5 | 0.443 | 0.484 | 0.339 | 0.411 | 0.654 | 0.715 | 0.376 | 0.422 | 0.406 | 0.645 | 0.476 | 0.371
5 | 1.03 | 0.717 | 0.644 | ESKKHYGFSLF [ANXA3_Y295_F291S_YF] | 1.01 | 0.574 | 0.541 | 0.572 | 0.678 | 0.526 | 1.03 | 0.513 | 0.528 | 0.93 | 0.526 | 0.676 | 0.453
6 | 0.757 | 0.717 | 0.595 | KVITDYFVDMK [MPP4_Y566_YF] | 0.897 | 0.429 | 0.547 | 0.748 | 0.795 | 0.451 | 1.36 | 0.455 | 0.561 | 0.858 | 0.439 | 0.673 | 0.435
7 | 0.845 | 0.72 | 0.515 | ITLPIYTKESE [ANK2_Y1455] | 0.961 | 0.641 | 0.499 | 0.722 | 0.76 | 0.485 | 1.19 | 0.88 | 0.907 | 1.11 | 1.75 | 0.848 | 0.974
8 | 0.779 | 0.376 | 0.412 | KLADMYGGGKD [CDH1_Y876_E880K] | 0.584 | 0.468 | 0.497 | 0.462 | 0.424 | 0.414 | 0.692 | 0.425 | 0.476 | 0.547 | 0.346 | 0.528 | 0.353
9 | 2.15 | 1.87 | 1.8 | KKHIPHREHKS [CSNK1G2_Y206_Y206H] | 2.89 | 2.61 | 1.71 | 1.97 | 4.9 | 2.81 | 4.05 | 1.01 | 1.72 | 5.87 | 1.42 | 4.03 | 1.53
10 | 0.927 | 0.542 | 0.587 | QRCYVYYYSYL [PTEN_Y176_R173C] | 1.86 | 1.18 | 1.45 | 2.09 | 2.56 | 1.22 | 2.08 | 1.44 | 1.35 | 4.07 | 2.61 | 1.53 | 3.53
11 | 1.33 | 1.7 | 1.21 | KPGLKYVTFGN [GALNTL5_Y404_YF] | 0.671 | 0.351 | 0.539 | 0.412 | 0.514 | 0.366 | 0.768 | 0.409 | 0.498 | 0.605 | 0.449 | 0.551 | 0.488
12 | 0.902 | 0.617 | 0.594 | NGPDVYVLPVT [AATK_Y93_L97V] | 1.79 | 0.723 | 0.644 | 0.72 | 0.751 | 0.453 | 1.05 | 2.25 | 0.776 | 0.837 | 2.73 | 0.787 | 1.2
13 | 0.764 | 0.882 | 0.365 | EFLKNYFTDKA [DSG2_Y775_R773K] | 0.847 | 0.527 | 0.63 | 0.555 | 0.493 | 0.361 | 0.827 | 0.581 | 0.556 | 0.808 | 0.531 | 0.573 | 0.632
14 | 1.12 | 1.44 | 0.895 | KPGLIYNKVNP [SPRED3_Y72_V71I] | 0.703 | 0.485 | 0.408 | 0.373 | 0.429 | 0.803 | 1 | 0.738 | 2.25 | 0.722 | 1.07 | 0.857 | 0.975
15 | 0.719 | 0.724 | 0.691 | SSAETYSRMRL [NBEAL2_Y1835] | 0.513 | 0.443 | 0.436 | 0.393 | 0.44 | 0.54 | 0.577 | 0.431 | 0.709 | 0.501 | 0.412 | 0.509 | 0.471
16 | 0.659 | 0.73 | 0.39 | ADKAAYLQNLN [MYH1_Y389] | 0.718 | 0.44 | 0.52 | 0.458 | 0.637 | 0.53 | 0.747 | 0.645 | 0.61 | 0.617 | 0.522 | 0.488 | 0.601
17 | 1.1 | 0.607 | 0.541 | RKLVDYDSAQH [BIN1_Y150_R154Q] | 0.548 | 0.648 | 0.796 | 0.425 | 1.28 | 0.737 | 0.988 | 0.4 | 0.668 | 0.56 | 0.565 | 0.871 | 0.541
